Results on four molecules are retold here after US20150216970A1 (Genentech, published 2015).

B1: HA-TIGIT (N-terminus HA-tagged human TIGIT, expressed on transfected COS-7 or CHO cells) (receptor, UniProt Q495A1 22-244, looked up)
chain: MMTGTIETTGNISAEKGGSIILQCHLSSTTAQVTQVNWEQQDQLLAICNADLGWHISPSFKDRVAPGPGLGLTLQSLTVNDTGEYFCIYHTYPDGTYTGRIFLEVLESSVAEHGARFQIPLLGAMAATLVVICTAVIVVVALTRKKKALRIHSVEGDLRRKSAGQEEWSPSAPSPPGSCVQAEAAPAGLCGEQRGEDCAELHDYFNVLSYRSLGNCSFFTETG
notes: whole, on cells; It is treated here as one construct; also called TIGIT-HA; HA-TIGIT (WT); not shown: HA tag at the N-terminus
B2: endogenous TIGIT on primary human T cells (receptor, UniProt Q495A1 22-244, looked up)
chain: B1 chain
notes: whole, on cells
B3: HA-TIGIT Q56R (receptor, UniProt Q495A1 22-244, looked up)
chain: B1 chain with Q35R
notes: whole, on cells; also called Q56R TIGIT; not shown: HA tag
B4: Flag-ST-CD226 (N-terminus SNAP-tagged human CD226, expressed on transfected COS-7 or CHO cells) (receptor, UniProt Q15762 19-336, looked up)
chain: EEVLWHTSVPFAENMSLECVYPSMGILTQVEWFKIGTQQDSIAIFSPTHGMVIRKPYAERVYFLNSTMASNNMTLFFRNASEDDVGYYSCSLYTYPQGTWQKVIQVVQSDSFEAAVPSNSHIVSEPGKNVTLTCQPQMTWPVQAVRWEKIQPRQIDLLTYCNLVHGRNFTSKFPRQIVSNCSHGRWSVIVIPDVTVSDSGLYRCYLQASAGENETFVMRLTVAEGKTDNQYTLFVAGGTVLLLLFVISITTIIVIFLNRRRRRERRDLFTESWDTQKAPNNYRSPISTSQPTNQSMDDTREDIYVNYPTFSRRPKTRV
modifications: SNAP tag labelled with benzyl-guanine SNAP-Lumi-4Tb (donor) and/or SNAP-A647 (acceptor)
notes: whole, on cells; also called SNAP-tagged (ST) CD226; human ST-CD226; not shown: Flag tag; SNAP tag (ST)

Data set [1] concerns the target T1, CD226-Flag (Flag-tagged human CD226, expressed in transfected COS 7 cells) (human, UniProt Q15762 19-336).
T1 construct: whole, on cells; This is the construct of the co-immunoprecipitation; Cells were lysed before the pull-down; also called Flag-CD226; not shown: Flag tag
T1 sequence (looked up): B4 chain
Description: anti-FLAG and anti-HA immunoprecipitation and immunoblot from COS-7 cells transfected with Flag-CD226 and HA-TIGIT. In general terms: In western blotting, separated proteins are transferred to a membrane and probed.

The target of data set [2] is B4. Briefly: TR-FRET on transfected COS-7 cells. In general terms: In TR-FRET formats the signal depends on donor and acceptor labels being close together.
For data set [3], the target named is T2, endogenous CD226 on primary human T cells (human, UniProt Q15762 19-336).
T2 construct: whole, on cells
T2 sequence (looked up): B4 chain
Briefly: TR-FRET on primary human T cells with fluorophore-conjugated anti-TIGIT (clone 1F4) and anti-CD226. An excerpt:
Primary human T cells were stimulated in vitro with anti-CD3 and anti-CD28 antibodies, sorted on the basis of TIGIT expression, rested, re-stimulated, and labeled with antibodies against endogenous TIGIT and CD226 that were conjugated to fluorophores compatible with TR-FRET. TIGIT-expressing T cells labeled with donor-conjugated anti-TIGIT and acceptor-conjugated anti-CD226 antibodies yielded a strong FRET signal (FIG. 30).
Human anti-TIGIT (Genentech clone 1F4), anti-CD226 (Santa Cruz Biotechnology), and anti-HVEM (eBioscience) antibodies were conjugated fluorophores compatible with TR-FRET (Cisbio). Primary human T cells were MACS-enriched from blood, stimulated in vitro with plate bound anti-CD3 and anti-CD28 for 72 hours. TIGIT-expressing and non-expressing T cells (all expressing CD226) were then sorted, rested without stimulation for 72 hours, and re-stimulated for 48 hours. […] T cells were then seeded at 400,000 cells/well in a white 96-well plate (Costar) and TR-FRET was recorded at 665 nm for 400 μs after a 60 μs delay following laser excitation at 343 nm using a PHERAstar plate reader (BMG Labtech). FRET intensity was expressed as the signal at 665 nm from cells labeled with Ab-Lumi4-Tb+Ab-d2 minus the signal at 665 nm from the same batch of cells labeled with Ab-Lumi4-Tb alone. […]

Data set [4] concerns the target B4. Description: TR-FRET ratio between Flag-ST-CD226 and HA-TIGIT Q56R.
Data set [5] deals with the molecule itself. Briefly: TR-FRET on COS-7 cells. As to the method:
Briefly, COS-7 cells were transfected with SNAP-tagged (ST) CD226 and HA-TIGIT using Lipofectamine 2000 (Life Technologies) and seeded in a white 96-well plate (Costar) at 100,000 cells per well. 24 hours later, cells were labeled with 100 nM of donor-conjugated benzyl-guanine SNAP-Lumi-4Tb (Cisbio) and 1 μM […] benzyl-guanine SNAP-A647 (New England Biolabs) diluted in DMEM 10% FCS for 1 h at 37° C., 5% CO2. After three washes in PBS, the FRET signal was recorded at 665 nm for 400 μs after a 60 μs delay following laser excitation at 343 nm using a Safire2 plate reader (Tecan). When the anti-TIGIT antibody was tested, the FRET signal was also recorded after a 15 min incubation. The FRET ratio was then calculated as the FRET intensity divided by the donor emission at 620 nm. The FRET intensity being: (signal at 665 nm from cells labeled with SNAP-donor and acceptor)—(signal at 665 nm from the same batch of transfected cells labeled with SNAP-donor only).

Positions count from the first letter of the chain named. In names and notes the source's numbering stands.

Turning to B1, the binding result in data set [1] and in data set [2] was “binds” throughout.

For the molecule B2, the binding result in data set [3] is on record as “binds”.

In the case of B3, in data set [4], the binding result is “binds”.

Take B4: the binding result in data set [5] is listed as “binds”.
